{"source": "patent US9289468B2", "about": "“Fusion protein comprising circularly permuted form of trail/Apo2L, coding gene and use thereof” (Beijing Sunbio Biotech Co. Ltd., priority 2011, dated 2016)", "molecules": {"B1": {"name": "NCPT-1.M1: MG+His6+NCPT-1 fusion protein, SEQ ID NO: 5 (protein)", "chain": "MGHHHHHHTLSSPNSKNEKALGRKINSWESSRSGHSFLSNLHLRNGELVIHEKGFYYIYSQTYFRFQEEIKENTKNDKQMVQYIYKYTSYPDPILLMKSARNSCWSKDAEYGLYSIYQGGIFELKENDRIFVSVTNEHLIDMDHEASFFGAFLVGGGGGGRVAAHITGTRGRSNT", "modifications": "NCPT-1.M1 polypeptide sequence"}}, "tested_on": "RPMI8226 xenograft tumor", "experiment": "Inhibitory activity on xenograft tumor of human multiple myeloma", "type": "in vivo, athymic nude mice", "conditions": "15 mg/kg i.p. once a day for 8 consecutive days", "procedure": "FIG. 8. […] Athymic nude mice (Beijing Huafukang Biotechnology Co., Ltd.) were subcutaneously inoculated with RPMI8226 tumor cells (5×10^6/mouse). When the tumor grew to about 500 mm^3, the mice were divided into several groups, which were intraperitoneally injected with normal saline (control group), NCPT-1.M1 (15 mg/kg) and wild-type TRAIL (wtTRAIL, 15 mg/kg or 45 mg/kg) respectively once a day for 8 consecutive days. The tumor volumes were measured with a vernier caliper every two days.\nAthymic nude mice (Beijing Huafukang Biotechnology Co., Ltd.) were subcutaneously inoculated with 5×10^6 RPMI8226 tumor cells/mouse. When the tumor grew to the volume of 500 mm3, the mice were divided into several groups, which were intraperitoneally injected with normal saline (negative control group), NCPT-1.M1 (15 mg/kg) and wtTRAIL (15 mg/kg or 45 mg/kg) once a day for 8 consecutive days. The tumor volumes were measured with a caliper every two days.", "note": "“Also recorded” adds a separate entry of the source."}
{"molecule": "B1", "values": [{"measurement": "Tumor growth rate compared with wtTRAIL 45 mg/kg", "value": "significantly lower than that of TRAIL group with a dose of 45 mg/kg; also recorded: significantly lower than that of wtTRAIL group with a dose of 45 mg/kg"}]}
